Data: publication PMC3667858 (PLoS ONE, 2013)

Experiments:
[1] = target: T1, FMDV Asia 1 virus-like particles (VLPs) (Foot-and-mouth disease virus serotype …, UniProt A2I7M2); assay: SPR; conditions: both partners purified
T1 construct: also called Asia 1 VLPs antigen; recombinant VLPs; copies: + +

[2] = target: T2, FMDV Asia 1 virions in infected BHK-21 cells (Foot-and-mouth disease virus serotype …, UniProt A2I7M2, strain); assay: immunostaining of cells or tissue; conditions: one partner purified
T2 construct: also called FMD virions; FMD Asia 1 virions; copies: + + +

B1: sdAb-C6 (VHH)
VHH: HVQLVESGGGSVQAGGSLRLSCTYSVYTYSSDSMAWFRQAPGKEREGVAGIYIGSGSTLYADSVKGRFTISQDKAKNTVYLQMNSLKPEDTALYYCAAGGNWYDGVLNVERAFAYWGQGTQVTVSS
notes: also called clone 6; sdAb-6
Kd [1]: 0.44 nM
koff [1]: 0.000703 s⁻¹
kon [1]: 1.6e+06 M⁻¹ s⁻¹

B2: QDs-C6 probe (VHH)
VHH: HVQLVESGGGSVQAGGSLRLSCTYSVYTYSSDSMAWFRQAPGKEREGVAGIYIGSGSTLYADSVKGRFTISQDKAKNTVYLQMNSLKPEDTALYYCAAGGNWYDGVLNVERAFAYWGQGTQVTVSS
notes: also called QD-sdAb probe; QDs-sdAb
binding result [2]: binds

B3: Alexa Fluor-488-conjugated-sdAb-C6 (VHH)
VHH: HVQLVESGGGSVQAGGSLRLSCTYSVYTYSSDSMAWFRQAPGKEREGVAGIYIGSGSTLYADSVKGRFTISQDKAKNTVYLQMNSLKPEDTALYYCAAGGNWYDGVLNVERAFAYWGQGTQVTVSS
notes: also called AF488-C6; AF488-C6 probe
binding result [2]: binds
